In patent publication JP2020117470A (dated 2020):

Target: T1, Streptococcus pyogenesのStreptolysin O(SLO) (Streptococcus pyogenes, UniProt P0C0I3 34-571)
T1 sequence: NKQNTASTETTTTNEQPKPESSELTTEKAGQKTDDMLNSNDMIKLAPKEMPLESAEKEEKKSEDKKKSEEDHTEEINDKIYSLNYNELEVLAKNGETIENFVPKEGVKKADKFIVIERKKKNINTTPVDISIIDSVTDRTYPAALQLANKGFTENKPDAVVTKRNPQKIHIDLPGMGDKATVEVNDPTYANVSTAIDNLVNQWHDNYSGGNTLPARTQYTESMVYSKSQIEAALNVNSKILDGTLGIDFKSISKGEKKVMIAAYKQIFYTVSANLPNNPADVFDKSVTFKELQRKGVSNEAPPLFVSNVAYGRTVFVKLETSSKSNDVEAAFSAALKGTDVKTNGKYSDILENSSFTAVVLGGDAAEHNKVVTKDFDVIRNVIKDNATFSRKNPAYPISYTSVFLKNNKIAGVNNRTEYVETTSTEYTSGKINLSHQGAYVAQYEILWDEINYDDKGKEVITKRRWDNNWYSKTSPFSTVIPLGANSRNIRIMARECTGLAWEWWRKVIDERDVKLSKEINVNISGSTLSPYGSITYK
Assay: ELISA, plate coated with 1 μg/mL SLO, anti-mouse IgG-HRP detection

B1: 抗体HS2 (antibody, V domains shown)
V domain 1: VQLQESGPELVKPGASVKISCKASGYAFSSSWMNWVRQRPGQGLEWIGRIYPGDGDTNYNGKFKGKATLTADKSSNAAYMHLSSLTSVDSAVYFCARRNYGSGFLYYFDYWGQGTTLTV
V domain 2: QIVLSQFPAILSASPGEKVTMTCRASSSVSYMHWYQQKPGSSPKLWIYATSDLASGVPARFSGSGSGTSYSLTISRVEAEDAATYYCQQWSSNPPTFGGGTKL
binding result: no binding

B2: 抗体HS3 (antibody, V domains shown)
VH: EVQLQESGPDLVKPSQSLSLICTVTGYSITSGYNWHWIRQFPGNKLEWMAYIDYTGSTHYNPSLKSRISITRDTSKNHFFLQLNSVTTEDTATYYCARDYGNYEWSFDVWGAGTTVTVSS
VL: DIQMNQSPSSLSASLGDTITITCHASQNINVWLSWYQQKPGNIPKLLIYKASNLHTGVPSRFSGSGSGTGFTLTISSLQPEDIATYYCQQGQSYPLTFGAGTKL
binding result: no binding
